Measurements: the supplement of paper PMC9112550, “Optimization of the antimicrobial peptide Bac7 by deep mutational scanning” (BMC Biology, 2022)

Test system: Escherichia coli TOP10
Assay: shrunken log2 fold change of peptide-encoding DNA abundance (4.5 h post-induction vs induction); higher = less antimicrobial activity (less host growth inhibition)
Conditions: time post-induction: 4.5 h; library: site-saturation at positions 5, 18, 19, 20
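Also: peptides expressed intracellularly from a pBAD plasmid library in pooled LB shake-flask culture, induced with 0.3% L-arabinose, DNA abundance read by NGS, three biological replicates, DESeq2 with apeglm shrinkage.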

Sequence	shrunken log2 fold change
RRIRYRPPRLPRPRPRPEKHPRP	-0.322
RRIRGRPPRLPRPRPRPIPDPRP	0.238
RRIRFRPPRLPRPRPRPKNEPRP	-0.137
RRIRPRPPRLPRPRPRPTPTPRP	0.483
RRIRYRPPRLPRPRPRPDNNPRP	-0.189
RRIRRRPPRLPRPRPRPVMKPRP	-0.025
RRIRKRPPRLPRPRPRPHYDPRP	0.0324
RRIRERPPRLPRPRPRPMVVPRP	-0.261
RRIRSRPPRLPRPRPRPGKVPRP	-0.0472
RRIRHRPPRLPRPRPRPDTTPRP	-0.226
RRIRFRPPRLPRPRPRPCSEPRP	0.0135
RRIRDRPPRLPRPRPRPYCTPRP	-0.253
RRIRNRPPRLPRPRPRPFLSPRP	-0.246
RRIRYRPPRLPRPRPRPKLYPRP	-0.65
RRIRQRPPRLPRPRPRPRGWPRP	0.267
RRIRQRPPRLPRPRPRPYFHPRP	-0.563
RRIRDRPPRLPRPRPRPAELPRP	0.0334
RRIRQRPPRLPRPRPRPYMIPRP	0.00875
RRIRPRPPRLPRPRPRPPMTPRP	0.0831
RRIRDRPPRLPRPRPRPLHCPRP	-0.145
RRIRDRPPRLPRPRPRPFENPRP	0.115
RRIRARPPRLPRPRPRPDHYPRP	-0.287
RRIRIRPPRLPRPRPRPNHTPRP	-0.541
RRIRGRPPRLPRPRPRPWMGPRP	-0.0634
RRIRERPPRLPRPRPRPKFAPRP	-0.139

Sequence	shrunken log2 fold change
RRIRIRPPRLPRPRPRPQFRPRP	-0.234
RRIRDRPPRLPRPRPRPWEDPRP	0.0111
RRIRKRPPRLPRPRPRPRQQPRP	0.395
RRIRPRPPRLPRPRPRPHCIPRP	-0.325
RRIRMRPPRLPRPRPRPKWAPRP	0.0251
RRIRRRPPRLPRPRPRPLNTPRP	-0.244
RRIRKRPPRLPRPRPRPSPCPRP	0.13
RRIRYRPPRLPRPRPRPHVTPRP	-0.147
RRIRKRPPRLPRPRPRPGLEPRP	1.18
RRIRCRPPRLPRPRPRPHPAPRP	0.34
RRIRWRPPRLPRPRPRPCCLPRP	0.00932
RRIRRRPPRLPRPRPRPMGCPRP	-0.0336
RRIRVRPPRLPRPRPRPTASPRP	0.541
RRIRGRPPRLPRPRPRPWHAPRP	0.281
RRIRWRPPRLPRPRPRPWCQPRP	0.121
RRIRIRPPRLPRPRPRPIITPRP	-0.625
RRIRERPPRLPRPRPRPTFFPRP	0.321
RRIRDRPPRLPRPRPRPFPLPRP	0.0517
RRIRPRPPRLPRPRPRPKYIPRP	-0.433
RRIRDRPPRLPRPRPRPEWGPRP	0.0825
RRIRKRPPRLPRPRPRPNAPPRP	0.449
RRIRERPPRLPRPRPRPTMPPRP	-0.124
RRIRQRPPRLPRPRPRPLDTPRP	-0.144
RRIRTRPPRLPRPRPRPPGLPRP	1.11
RRIRLRPPRLPRPRPRPVYPPRP	-0.132

Sequence	shrunken log2 fold change
RRIRWRPPRLPRPRPRPLNVPRP	-0.0654
RRIRTRPPRLPRPRPRPCPGPRP	-0.232
RRIRSRPPRLPRPRPRPHILPRP	-0.0674
RRIRARPPRLPRPRPRPQTFPRP	-0.528
RRIRLRPPRLPRPRPRPEYRPRP	-0.0221
RRIRQRPPRLPRPRPRPQMKPRP	-0.264
RRIRYRPPRLPRPRPRPFNYPRP	0.0209
RRIRKRPPRLPRPRPRPPMAPRP	0.41
RRIRIRPPRLPRPRPRPFHQPRP	-0.961
RRIRQRPPRLPRPRPRPDYIPRP	-0.0798
RRIRHRPPRLPRPRPRPMDIPRP	-0.00136
RRIRTRPPRLPRPRPRPKDLPRP	0.0246
RRIRFRPPRLPRPRPRPPLRPRP	0.373
RRIRWRPPRLPRPRPRPGRAPRP	0.71
RRIRVRPPRLPRPRPRPIGFPRP	0.187
RRIRMRPPRLPRPRPRPIPQPRP	0.256
RRIRVRPPRLPRPRPRPPSRPRP	0.743
RRIRSRPPRLPRPRPRPKEFPRP	-0.216
RRIRYRPPRLPRPRPRPHLSPRP	-0.235
RRIRFRPPRLPRPRPRPRKPPRP	0.428
RRIRNRPPRLPRPRPRPRAAPRP	0.601
RRIRNRPPRLPRPRPRPWRQPRP	-0.0337
RRIRVRPPRLPRPRPRPMRTPRP	-0.0139
RRIRKRPPRLPRPRPRPQSMPRP	-0.00568
RRIRDRPPRLPRPRPRPRMLPRP	0.229

Sequence	shrunken log2 fold change
RRIRSRPPRLPRPRPRPFKWPRP	-0.24
RRIRYRPPRLPRPRPRPQDMPRP	0.000181
RRIRGRPPRLPRPRPRPKQNPRP	0.853
RRIRHRPPRLPRPRPRPESCPRP	0.0512
RRIRDRPPRLPRPRPRPAVYPRP	-0.097
RRIRIRPPRLPRPRPRPRTCPRP	-0.282
RRIRMRPPRLPRPRPRPTWIPRP	0.0438
RRIRCRPPRLPRPRPRPMYNPRP	-0.535
RRIRIRPPRLPRPRPRPVLLPRP	-0.03
RRIRCRPPRLPRPRPRPQKTPRP	-0.162
RRIRPRPPRLPRPRPRPNNNPRP	-0.659
RRIRCRPPRLPRPRPRPEPPPRP	2.06
RRIRDRPPRLPRPRPRPPLRPRP	0.271
RRIRERPPRLPRPRPRPNIAPRP	0.0918
RRIRIRPPRLPRPRPRPWFVPRP	-0.578
RRIRHRPPRLPRPRPRPSTGPRP	-0.24
RRIRSRPPRLPRPRPRPVHYPRP	-0.707
RRIRTRPPRLPRPRPRPPKVPRP	0.286
RRIRHRPPRLPRPRPRPMKCPRP	-0.0796
RRIRPRPPRLPRPRPRPFVQPRP	-0.0832
RRIRRRPPRLPRPRPRPVNRPRP	-0.0157
RRIRNRPPRLPRPRPRPKAAPRP	3.06
RRIRHRPPRLPRPRPRPMVDPRP	-0.222
RRIRPRPPRLPRPRPRPKDAPRP	0.164
RRIRKRPPRLPRPRPRPNESPRP	-0.0703

Sequence	shrunken log2 fold change
RRIRSRPPRLPRPRPRPVWDPRP	-0.143
RRIRRRPPRLPRPRPRPQPYPRP	-0.142
RRIRCRPPRLPRPRPRPYNDPRP	-0.456
RRIRYRPPRLPRPRPRPAMMPRP	0.0997
RRIRPRPPRLPRPRPRPRSFPRP	0.0582
RRIRTRPPRLPRPRPRPTCTPRP	-0.094
RRIRKRPPRLPRPRPRPFRHPRP	-0.0849
RRIRMRPPRLPRPRPRPQSFPRP	-0.199
RRIRNRPPRLPRPRPRPSINPRP	-0.537
RRIRGRPPRLPRPRPRPCKSPRP	-0.00288
RRIRPRPPRLPRPRPRPMFPPRP	0.0316
RRIRCRPPRLPRPRPRPYERPRP	-0.133
RRIRARPPRLPRPRPRPGWMPRP	-0.168
RRIRQRPPRLPRPRPRPWNPPRP	-0.0759
RRIRYRPPRLPRPRPRPWAPPRP	-0.289
RRIRVRPPRLPRPRPRPPTCPRP	0.141
RRIRCRPPRLPRPRPRPTNVPRP	-0.154
RRIRVRPPRLPRPRPRPWMVPRP	-0.208
RRIRVRPPRLPRPRPRPDLTPRP	-0.263
RRIRKRPPRLPRPRPRPAFYPRP	0.114
RRIRLRPPRLPRPRPRPPAIPRP	2.54
RRIRIRPPRLPRPRPRPYHVPRP	-0.186
RRIRPRPPRLPRPRPRPADQPRP	0.00426
RRIRVRPPRLPRPRPRPNAAPRP	0.0557
RRIRNRPPRLPRPRPRPDSWPRP	-0.125
